Residue numbers refer to the chain shown, from its start.
Legend:
mTEM8-Fc = target: T1, mTEM8-Fc (Mus musculus, UniProt Q9CZ52); test: Biocore affinity measurement of anti-TEM8 Fabs, mTEM8-Fc; type: binding
T1 construct: Fc
T1 sequence (Q9CZ52 31-319 limits assumed): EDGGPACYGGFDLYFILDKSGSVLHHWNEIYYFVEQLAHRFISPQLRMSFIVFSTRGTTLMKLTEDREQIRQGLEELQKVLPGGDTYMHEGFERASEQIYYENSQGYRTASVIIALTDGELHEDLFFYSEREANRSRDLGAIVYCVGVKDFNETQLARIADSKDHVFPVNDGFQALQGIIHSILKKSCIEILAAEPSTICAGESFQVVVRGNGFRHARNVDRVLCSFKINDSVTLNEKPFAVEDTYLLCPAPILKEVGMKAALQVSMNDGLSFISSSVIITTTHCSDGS

hTEM8-AP = target: T2, hTEM8-AP (Homo sapiens, UniProt Q9H6X2); test: Biocore affinity measurement of anti-TEM8 Fabs, hTEM8-AP; type: binding
T2 sequence (Q9H6X2 33-321 limits assumed): T1 sequence (Q9CZ52 31-319 limits assumed) with R40K, S104R, A241S

[1] = test system: DLD-1 colorectal adenocarcinoma xenograft; test: Efficacy of M830 alone and in combination in the DLD-1 colorectal adenocarcinoma xenograft model; type: in vivo, mice; conditions: for % Tumor Reduction vs. Vehicle at Day 21 / % Tumor Reduction vs. combination partner at Day (#): DLD1 Colon; for % Tumor Reduction vs. Vehicle at Day 21: 3 times per week; for % Tumor Reduction vs. combination partner at Day (#): Day 21; for combination compared with any agent alone / efficacy against DLD-1 cancer cells in the xenograft model: first study
Protocol: Tumor weights were calculated following surgical removal. […] Irinotecan was given once per week at 60 mg/kg i.v. and bevacizumab was dosed at 5 mg/kg i.p., three times per week.
In a second study, treatment was initiated with a large tumor volume of approximately 170 mm^3. M830 alone or in combinations with bevacizumab, irinotecan, or both, was given as a loading dose of 20 mg/kg followed by 5 mg/kg three times per week. The doses of bevacizumab and irinotecan were the same as in the first study. An additional group received a combination of bevacizumab and irinotecan without the M830 antibody.

[2] = test system: HCT116 colorectal carcinoma xenograft; test: Efficacy of TEM8 antibodies in the HCT116 colorectal carcinoma xenograft model; type: in vivo, mice; conditions: HCT116 Colon; M830 alone; IP, 3 times per week; treatment initiated at 60-80 mm^3
Protocol: Tumor cells were cultured in RPMI-1640 medium supplemented with 10% fetal bovine serum, 2 mM glutamine, 100 units/mL penicillin G sodium, 100 μg/mL streptomycin sulfate, and 25 μg/mL gentamicin. The tumor cells were grown in tissue culture flasks in a humidified incubator at 37° C., in an atmosphere of 5% CO2 and 95% air.
2.5×10^6 to 5×10^6 HCT116 tumor cells were injected subcutaneously into the flank of mice. Tumor weights were calculated following surgical removal. Treatment was initiated when tumor volume reached 60-80 mm^3. Dosing volume was 10 mL/kg (0.2 mL/20 g mouse).
TEM8 Ab (hIgG1) doses were 5 and 15 mg/kg, three times per week, for 3 weeks. Bevacizumab was dosed at 5 mg/kg, twice per week, for 3 weeks. FIG. 1B and FIG. 1D show mean tumor growth and percent body weight change for each group, respectively, over the time course of the study.

[3] = test system: H460 non-small cell lung carcinoma xenograft; test: Efficacy of M830 in the H460 non-small cell lung carcinoma xenograft model; type: in vivo, athymic nude mice; conditions: for % Tumor Reduction vs. Vehicle at Day 21: 3 times per week; for % Tumor Reduction vs. combination partner at Day (#): Day 32
Protocol: Animals were monitored for regression responses.
The statistical tests were not adjusted for multiple comparisons.
Cultured H460 cells were harvested during exponential growth and resuspended in phosphate buffered saline at a concentration of 1×10^8 cells/mL. 1.0×10^7 tumor cells were injected subcutaneously into the flank of athymic nude mice. Animals were euthanized when tumors reached the pre-determined volume endpoint of 2000 mm^3 or on the final day (Day 88), whichever came first.

[4] = Pharmacokinetics of TEM8 antibodies in mouse, single dose; type: in vivo
From the text: (§1) Tables 8 and 9 show pharmacokinetic properties of TEM8 antibodies according to the present invention in mouse for single dose (Table 8) and multiple dose (Table 9) treatments.

[5] = test system: MC38 colon carcinoma liver metastasis; test: Efficacy of M830 in MC38 colon carcinoma liver metastasis model; type: in vivo, C57BL/6 mice
From the text: C57BL/6 mice were challenged with MC38 colon carcinoma liver metastasis by intrasplenic injections of cultured cells.

UACC melanoma cells = test: TEM8 antibody efficacy in UACC melanoma model; type: in vivo, mice
Protocol: UACC melanoma cells were cultured and injected subcutaneously into mice. Treatment was initiated with a tumor volume of 50 mm^3, and treatment groups consisted of one of four TEM8 antibodies (M825, M830, M863, and M822), each dosed at 15 mg/kg, 3 times per week for 3-4 weeks.

[6] = Pharmacokinetics of TEM8 antibodies in mouse, multiple dose; type: in vivo
From the text: as §1

[7] = Group 7: M830 in combination with paclitaxel, n=10
[8] = H460 Lung, combination partner Paclitaxel
[9] = M830 15 mg/kg IP in combination with bevacizumab 5 mg/kg IP
[10] = M830 in combination with bevacizumab, n=10
[11] = combination of M830 and paclitaxel

B1: M830: TEM8 monoclonal antibody (hIgG1), VH SEQ ID NO:5 and VL SEQ ID NO:6 (antibody, V domains shown)
VH: EVQLVESGGGVVQPGRSVRLSCAASGFTFSTYTMHWVRQAPGKGLEWVAIISNDGSNKYYADPVRGRFTISRDNSKNTLYLQMNSLRAEDTAVYYCVRGSSWYRGNWFDPWGQGTLVTVSS
VL: DIQMTQSPSSLSASVGDRVTIACRASQTISRYLNWYQQKPGKAPKLLIYAASSLQSGVSSRFSGSGSGTEFTLTISSLQPEDFATYFCQQTYSPPITFGQGTRLEIKR
modifications: TEM830 mAb VH; TEM830 mAb VL
mTEM8-Fc
  ka: 774900 M⁻¹ s⁻¹
  kd: 0.002901 s⁻¹
hTEM8-AP
  ka: 607100 M⁻¹ s⁻¹
  kd: 0.0009533 s⁻¹
[1]; M830 alone, IP
  % Tumor Reduction vs. Vehicle at Day 21: 68%
[1]; combination partner Bevacizumab
  % Tumor Reduction vs. combination partner at Day (#): 48% (21)
[1]; combination partner Bevacizumab, M830 IP
  % Tumor Reduction vs. Vehicle at Day 21: 86%
[1]; combination partner Irinotecan
  % Tumor Reduction vs. combination partner at Day (#): 53% (21)
[1]; combination partner Irinotecan, M830 IP, treatment initiated at about 50 mm^3
  % Tumor Reduction vs. Vehicle at Day 21: 86%
[1]; combination M830/bevacizumab
  combination compared with any agent alone: more effective than any agent alone
  efficacy against DLD-1 cancer cells in the xenograft model: effective
[1]; combination M830/irinotecan
  combination compared with any agent alone: more effective than any agent alone
  efficacy against DLD-1 cancer cells in the xenograft model: effective
[1]; second study, M830 with bevacizumab and irinotecan
  triple combination compared with M830/bevacizumab combination: did not outperform the M830/bevacizumab combination therapy
[2]
  % Tumor Reduction vs. Vehicle at Day 21: 39.5%
[3]; Group 7: M830 15 mg/kg IP in combination with paclitaxel 30 mg/kg IV, maximum possible TGD 65.2 days (286%) for the 88-day study
  TGD: maximum TGD
[3]; Group 7: M830 15 mg/kg IP in combination with paclitaxel 30 mg/kg IV, n=10
  regression responses: 90%
[3]; [7]
  CRs (complete regressions): seven
  PRs (partial regressions): two
  TFS (tumor-free survivors) at study end: three
[3]; H460 Lung, M830 alone, IP
  % Tumor Reduction vs. Vehicle at Day 21: 62%
[3]; H460 Lung, combination partner Bevacizumab
  % Tumor Reduction vs. combination partner at Day (#): 58.5% (32)
[3]; H460 Lung, combination partner Bevacizumab, M830 IP
  % Tumor Reduction vs. Vehicle at Day 21: 94.5%
[3]; [8]
  regression (in cell of % Tumor Reduction vs. Vehicle at Day 21): −61%
  % Tumor Reduction vs. combination partner at Day (#): 94% (32)
[3]; H460 Lung, combination partner Paclitaxel, M830 IP, treatment initiated at 60-80 mm^3
  % Tumor Reduction vs. Vehicle at Day 21: > 100%
[3]; [9]
  % TGD: 146%
  TGD: 33.2 days
[3]; [10]
  CRs (complete regressions): 3
  PR (partial regressions): 1
  TFS (tumor-free survivors) at study end: three
  regression responses: 40%
[3]; M830 in combination with paclitaxel
  rank of activity among regimens: most active treatment regimen tested
[3]; [11]
  combination compared with either agent alone: more effective than either agent alone
  efficacy against H460 cancer cells in the xenograft model: effective
[4]; 5 mg/kg
  AUCI: 2242.485 µg·h/mL
  AUCT: 2242.286 µg·h/mL
  CLF: 2.23 mL/h/kg
  CMAX: 67500 ng/mL
  HALF: 8.54 h
  KEL: 0.0811 h⁻¹
  TMAX: 3 h
  VZF: 0.02748 L/kg
[4]; 15 mg/kg
  AUCI: 10692.742 µg·h/mL
  AUCT: 10692.598 µg·h/mL
  CLF: 1.40 mL/h/kg
  CMAX: 203000 ng/mL
  HALF: 14.94 h
  KEL: 0.0464 h⁻¹
  TMAX: 3 h
  VZF: 0.03024 L/kg
[5]; P=0.0001
  survival of mice: significantly improved the survival
[5]; versus 11 days for vehicle treated mice
  median survival rate: 17 days
UACC melanoma cells; 15 mg/kg, 3 times per week for 3-4 weeks, treatment initiated at 50 mm^3
  slowing of tumor growth: effective at slowing tumor growth
UACC melanoma cells; UACC Melanoma, M830 alone, IP, 3 times per week, treatment initiated at about 50 mm^3
  % Tumor Reduction vs. Vehicle at Day 21: 65%
[6]; 5 mg/kg
  AUCI: 4316.79 µg·h/mL
  AUCT: 4315.918 µg·h/mL
  CLF: 1.16 mL/h/kg
  CMAX: 86400 ng/mL
  HALF: 22.88 h
  KEL: 0.0303 h⁻¹
  TMAX: 3 h
  VZF: 0.03824 L/kg
[6]; 15 mg/kg
  AUCI: 23053.875 µg·h/mL
  AUCT: 23052.853 µg·h/mL
  CLF: 0.65 mL/h/kg
  CMAX: 330000 ng/mL
  HALF: 18.70 h
  KEL: 0.0371 h⁻¹
  TMAX: 3 h
  VZF: 0.01755 L/kg
